Three molecules from publication PMC3472097 (Structure (London, England : 1993), 2012) can be followed below.

For orientation: Kd means the concentration at which binding is half-saturated.

To fix the notation:
B1: NIPP1 PP1-binding domain, residues 144-225 (domain or fragment, UniProt Q12972 144-225, looked up)
chain: GGEDDELKGLLGLPEEETELDNLTEFNTAHNKRISTLTIEEGNLDIQRPKRKRKNSRVTFSEDDEIINPEDVDPSVGRFRNM
B2: NIPP1 PP1-binding domain, residues 158-216 (domain or fragment, UniProt Q12972 158-216, looked up)
chain: EEETELDNLTEFNTAHNKRISTLTIEEGNLDIQRPKRKRKNSRVTFSEDDEIINPEDVD
B3: nuclear inhibitor of PP1 (NIPP1), residues 1-225 (FHA domain and PP1-binding domain) (domain or fragment, UniProt Q12972 1-225, looked up)
chain: MAAAANSGSSLPLFDCPTWAGKPPPGLHLDVVKGDKLIEKLIIDEKKYYLFGRNPDLCDFTIDHQSCSRVHAALVYHKHLKRVFLIDLNSTHGTFLGHIRLEPHKPQQIPIDSTVSFGASTRAYTLREKPQTLPSAVKGDEKMGGEDDELKGLLGLPEEETELDNLTEFNTAHNKRISTLTIEEGNLDIQRPKRKRKNSRVTFSEDDEIINPEDVDPSVGRFRNM

Chain of protein phosphatase 1 alpha (PP1α), residues 7-330, recombinant (P62136 7-330): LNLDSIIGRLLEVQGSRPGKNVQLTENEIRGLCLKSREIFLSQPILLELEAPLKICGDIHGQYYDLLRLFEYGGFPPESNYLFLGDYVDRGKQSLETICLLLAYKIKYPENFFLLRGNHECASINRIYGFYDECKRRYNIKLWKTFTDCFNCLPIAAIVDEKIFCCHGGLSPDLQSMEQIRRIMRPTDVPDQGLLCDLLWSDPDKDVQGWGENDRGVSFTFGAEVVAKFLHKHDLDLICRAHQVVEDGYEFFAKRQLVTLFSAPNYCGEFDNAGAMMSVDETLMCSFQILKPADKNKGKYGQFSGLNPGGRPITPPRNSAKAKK

The experiment has as its target protein phosphatase 1 alpha (PP1α), residues 7-330, recombinant (UniProt P62136 7-330). The experiment is described as follows: ITC.
Turning to B1, the Kd came out at 73 nM.
In the case of B2 it was 104 nM.
As for B3, the figure is 17.8 nM.
